We go through 4 molecules from article PMC7858052, “Z-Ring-Associated Proteins Regulate Clustering of the Replication Terminus-Binding Protein ZapT in Caulobacter crescentus” (mBio, 2021).

Data set [1] has as its target truncated variant of ZapT-His that lacks the C-terminal sensor domain (Caulobacter crescentus). Description: SEC; Superdex 200 PC3.2/30; 25 mM Tris-HCl pH 7.5, 300 mM NaCl, 20% sucrose; 20 ul/min; fractions on SDS-15% PAGE, Coomassie; single proteins and mixtures (also His-ZauP + ZapT-His + ZapTΔC-His with ZapT-His as internal control).
Data set [2] concerns the molecule itself. The data set is described as above.

In the case of “truncated variant of ZapT-His that lacks the C-terminal sensor domain (domain or fragment)”, the stoichiometry N in data set [1] is 2.

B1: ZapT with a C-terminal hexahistidine tag (natural protein, Caulobacter crescentus, UniProt A0A0H3C832 1-141, looked up)
chain: MAKGPNAFRTISEAAEELGVPQHVLRFWETKFSFIRPMKRAGGRRFYRPQDIAVLNGVRTLLHSEGLTIKGVQKLHRDHGLAHVIAAGLGSNGSASLEAEYDYAPRGKERPVGEETRDRLAFALADLTAIKSRLDGLLARG
notes: tagged protein printed as 21 kDa; the last residue of ZapT is printed as Gly141; also called ZapT-His; wild-type ZapT-His; source: E. coli, purified (procedure in Text S1); not shown: His6, C-terminal, kept
On to B1, for which the “stoichiometry N” value in data set [2] is 2.

B2: ZauP with an N-terminal hexahistidine-SUMO tag (natural protein, Caulobacter crescentus, UniProt A0A0H3CD23 1-127, looked up)
chain: MIPADSTALDLAVRRLERAVSQLEQRLAAKAAETQRALAAAATSAVALPLAVTEPSLFDDDERARLVADLEAAREREKALEEAGEQASVALGRAIAEIRAALGDESVANDLHAPGDDDDLFEDSEEA
notes: ZauP, functional ZapB homolog of Caulobacter crescentus NA1000, locus CCNA_03357; tagged protein printed as 26 kDa; primers Nhis-SUMO-zapB-P3/P4 run from the start codon to the stop codon; also called His-ZauP; source: E. coli, purified (procedure in Text S1); not shown: His6-SUMO, N-terminal, kept
Turning to B2, the “stoichiometry N” value in data set [2] stood at 6.

B3: ZapA with an N-terminal hexahistidine-MBP tag (natural protein, Caulobacter crescentus, UniProt A0A0H3CCW6 1-108, looked up)
chain: MAQVTIQVNGRPYMVGCEDGQEPHLTELARLFDRQVRQVSQDVGQLGETRLFLMGALLLADELSDMKLRLAHANAEIARMQQEGTKAEIAAIRALDAAAERIEKLATE
notes: ZapA, Z-ring-associated protein of Caulobacter crescentus NA1000, locus CCNA_03356; tagged protein printed as 56 kDa; primers NhisMBP-zapA-fwd/rev run from the start codon to the stop codon; also called His-ZapA; source: E. coli, purified (procedure in Text S1); not shown: His6-MBP, N-terminal, kept
With B3, in data set [2], the “stoichiometry N” value is 4.
